Results published in publication PMC9299544.
Where two headings read alike, the source gives them in different places. Each block holds one substance with its values, some of them ahead of it.

Columns and labels:
[1] = biological target: wild-type mouse myosin-15 motor domain with 2 IQ motifs (MD-2IQ), heavy chain (mouse); test: SEC; heavy chain, ELC and RLC co-expressed in Sf9; FLAG M2 resin, MonoQ, then Superdex 200 in 10 mM Mops, 100 mM KCl, 0.1 mM EGTA, pH 7.0; single peak
F-actin [2] = biological target: F-actin (UniProt P68133); settings: cited from earlier work
F-actin [3] = biological target: F-actin (UniProt P68133); settings: cited from earlier work; remark: listed apart in the source
[4] = biological target: chicken skeletal muscle actin (ADP F-actin) (chicken) (UniProt P68139); test: cryo-EM structure; rigor state: 6 uM myosin-15 treated with apyrase (10 U/ml), applied twice to 0.6 uM ADP F-actin on the grid; KMEI buffer with 0.01% NP-40 substitute; 25°C; helical reconstruction, symmetry expansion and focused classification
[5] = biological target: chicken skeletal muscle actin (ADP F-actin) (chicken) (UniProt P68139); test: cryo-EM structure; Mg-ADP state: wild-type myosin-15 incubated with 5 mM ADP-Mg for 20 min, applied to 0.6 uM ADP F-actin on the grid; else as for the rigor samples

stoichiometry N [1]: 1
Substance: bovine smooth muscle essential light chain (ELC; MYL6) (from UniProt P60661 1-151) (natural protein)

stoichiometry N [1]: 1
Substance: chicken regulatory light chain (RLC; MYL12B) (natural protein)

Substance: myosin-15 motor domain (from UniProt Q9QZZ4)
Kd (F-actin [2]): 200 nM
Kd (F-actin [3]): 310 nM

stoichiometry N [4]: 1
stoichiometry N [5]: 1
Substance: wild-type mouse myosin-15 motor domain with 2 IQ motifs (MD-2IQ), as the myosin-15:ELC:RLC complex (from UniProt P60661 1-151)
